T1: Cas12i3 S536R K583R N711R C724R (Unidentified, S536R,K583R,N711R,C724R)
T1 chain: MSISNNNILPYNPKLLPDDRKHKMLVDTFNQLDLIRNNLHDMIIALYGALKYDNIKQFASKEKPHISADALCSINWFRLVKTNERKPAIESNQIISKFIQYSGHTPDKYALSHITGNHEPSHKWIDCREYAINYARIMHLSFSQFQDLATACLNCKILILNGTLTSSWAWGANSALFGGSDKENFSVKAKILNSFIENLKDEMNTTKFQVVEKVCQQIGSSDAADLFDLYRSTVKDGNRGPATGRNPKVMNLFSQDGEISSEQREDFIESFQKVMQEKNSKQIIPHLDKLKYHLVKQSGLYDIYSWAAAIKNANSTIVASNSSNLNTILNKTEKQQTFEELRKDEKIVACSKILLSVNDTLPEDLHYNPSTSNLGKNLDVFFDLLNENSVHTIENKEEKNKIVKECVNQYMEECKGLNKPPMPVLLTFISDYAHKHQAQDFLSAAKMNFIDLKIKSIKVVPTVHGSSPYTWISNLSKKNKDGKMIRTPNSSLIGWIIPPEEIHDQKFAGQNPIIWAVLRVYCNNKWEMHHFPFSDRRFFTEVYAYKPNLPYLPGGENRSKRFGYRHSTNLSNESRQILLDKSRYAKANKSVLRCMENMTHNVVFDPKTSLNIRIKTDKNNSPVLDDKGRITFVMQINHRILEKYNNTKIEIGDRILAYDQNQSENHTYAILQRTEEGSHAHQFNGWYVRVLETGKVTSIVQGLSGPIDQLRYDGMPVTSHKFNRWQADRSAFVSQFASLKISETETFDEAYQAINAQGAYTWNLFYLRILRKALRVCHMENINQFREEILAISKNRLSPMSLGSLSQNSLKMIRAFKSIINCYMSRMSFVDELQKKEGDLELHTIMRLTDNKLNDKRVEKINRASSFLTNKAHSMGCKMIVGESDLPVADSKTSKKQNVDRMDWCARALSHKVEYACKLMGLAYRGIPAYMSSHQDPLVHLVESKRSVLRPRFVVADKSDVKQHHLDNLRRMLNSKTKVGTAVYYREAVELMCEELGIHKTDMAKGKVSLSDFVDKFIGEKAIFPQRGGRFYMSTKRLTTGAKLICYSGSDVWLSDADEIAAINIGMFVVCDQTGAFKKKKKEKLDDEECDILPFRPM

T2: Cas12i3 N711R (Unidentified, N711R)
T2 chain: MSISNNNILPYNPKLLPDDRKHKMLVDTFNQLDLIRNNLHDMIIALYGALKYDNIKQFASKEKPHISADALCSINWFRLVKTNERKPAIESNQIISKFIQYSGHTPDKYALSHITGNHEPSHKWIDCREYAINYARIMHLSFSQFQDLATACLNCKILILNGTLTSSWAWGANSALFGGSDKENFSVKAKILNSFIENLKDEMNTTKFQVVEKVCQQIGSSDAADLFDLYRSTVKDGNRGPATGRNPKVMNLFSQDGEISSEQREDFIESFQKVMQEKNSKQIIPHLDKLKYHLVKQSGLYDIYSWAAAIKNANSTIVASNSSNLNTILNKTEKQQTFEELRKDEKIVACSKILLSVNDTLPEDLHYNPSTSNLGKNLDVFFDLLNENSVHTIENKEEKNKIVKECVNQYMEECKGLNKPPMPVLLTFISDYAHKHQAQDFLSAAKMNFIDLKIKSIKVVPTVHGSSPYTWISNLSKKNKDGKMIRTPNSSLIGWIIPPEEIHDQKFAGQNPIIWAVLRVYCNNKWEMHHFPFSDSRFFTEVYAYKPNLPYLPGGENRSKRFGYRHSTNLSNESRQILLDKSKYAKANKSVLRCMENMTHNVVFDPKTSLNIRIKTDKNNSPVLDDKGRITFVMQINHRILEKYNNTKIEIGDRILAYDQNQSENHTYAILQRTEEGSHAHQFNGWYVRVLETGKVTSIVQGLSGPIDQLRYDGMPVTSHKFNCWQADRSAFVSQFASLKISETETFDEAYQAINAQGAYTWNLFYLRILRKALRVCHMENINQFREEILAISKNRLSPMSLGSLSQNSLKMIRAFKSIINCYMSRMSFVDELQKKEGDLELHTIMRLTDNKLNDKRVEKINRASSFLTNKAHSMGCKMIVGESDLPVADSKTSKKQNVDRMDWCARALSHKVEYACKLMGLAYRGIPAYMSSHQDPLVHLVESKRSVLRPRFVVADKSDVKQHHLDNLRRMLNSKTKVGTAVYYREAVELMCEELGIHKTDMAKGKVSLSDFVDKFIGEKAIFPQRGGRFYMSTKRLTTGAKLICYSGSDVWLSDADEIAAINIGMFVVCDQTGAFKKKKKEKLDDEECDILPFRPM


Experiments:
[1] = target: T1, Cas12i3 S536R K583R N711R C724R; assay: cell_activity; fold change in % indels, HEK293T; PAM not stated in example
Description: (§1) Approximately 16 hours prior to transfection, 100 μl of 25,000 HEK293T cells in DMEM/10% FBS+Pen/Strep were plated into each well of a 96-well plate. On the day of transfection, the cells were 70-90% confluent. For each well to be transfected, a mixture of 0.5 μl of Lipofectamine 2000 and 9.5 μl of Opti-MEM was prepared and then incubated at room temperature for 5-20 minutes (Solution 1). […] In the case of negative controls, the crRNA was not included in Solution 2. The solution 1 and solution 2 mixtures were mixed by pipetting up and down and then incubated at room temperature for 25 minutes. Following incubation, 20 μL of the Solution 1 and Solution 2 mixture were added dropwise to each well of a 96 well plate containing the cells. 72 hours post transfection, cells are trypsinized by adding 10 μL of TrypLE to the center of each well and incubated for approximately 5 minutes. 100 μL of D10 media was then added to each well and mixed to resuspend cells. The cells were then spun down at 500 g for 10 minutes, and the supernatant was discarded. QuickExtract buffer was added to ⅕ the amount of the original cell suspension volume. Cells were incubated at 65° C. for 15 minutes, 68° C. for 15 minutes, and 98° C. for 10 minutes.
(§2) Samples for Next Generation Sequencing were prepared by two rounds of PCR. The first round (PCR1) was used to amplify specific genomic regions depending on the target. PCR1 products were purified by column purification. Round 2 PCR (PCR2) was done to add Illumina adapters and indexes. Reactions were then pooled and purified by column purification. Sequencing runs were done with a 150 cycle NextSeq v2.5 mid or high output kit.

Cas12i3 N711R = target: T2, Cas12i3 N711R; assay: as above
Description: as §1, §2

Binder	binding signal [1]	binding signal (Cas12i3 N711R)
VEGFA_T2 crRNA ; VEGFA_T2 target (ssRNA ; dsDNA) RNA: AUAGUGUGUCCUUAGUUGACAUAAUCCUCCACCAGUCAUGGU DNA 1: AATCCTCCACCAGTCATGGT DNA 2: ACCATGACTGGTGGAGGATT	1.1 fold of wild-type	2.17 fold of wild-type
AAVS1_T3 crRNA ; AAVS1_T3 target (ssRNA ; dsDNA) RNA: AUAGUGUGUCCUUAGUUGACAUGUGAGAAUGGUGCGUCCUAG DNA 1: GTGAGAATGGTGCGTCCTAG DNA 2: CTAGGACGCACCATTCTCAC	0.8 fold of wild-type	2.79 fold of wild-type
EMX1_T5 crRNA ; EMX1_T5 target (ssRNA ; dsDNA) RNA: AUAGUGUGUCCUUAGUUGACAUUAUUAUUCCCAUAGGGAAGG DNA 1: TATTATTCCCATAGGGAAGG DNA 2: CCTTCCCTATGGGAATAATA	0.72 fold of wild-type	1.56 fold of wild-type

Reference: patent US20240352434, “COMPOSITIONS COMPRISING A VARIANT CAS12I3 POLYPEPTIDE AND USES THEREOF” (Arbor Biotechnologies, Inc., published 2024)
